How the values were obtained:
[1] = test system: MS2 coat protein; assay: apparent KD of MS2 coat protein, switch ON state; designed switch direction (-1 OFF switch, 1 ON switch): 1; higher = weaker reporter binding; details: FMN input: 0 or 200 uM; Eterna round: R93 (includes R88 designs)
How it was run: (§1)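 Illumina sequencing clusters served as templates for on-chip transcription of the designed RNA switches. SNAP-549-labelled MS2 coat protein was then titrated in twofold steps from 0.7 or 1.5 nM to 3 µM, allowing 0.8–1.5 h per step at first and 10–20 min per step later. The buffer held 100 mM Tris-HCl pH 7.5, 80 mM KCl and 4 mM MgCl2, without or with constant ligand. Apparent KD is the median per design of normalised cluster binding-curve fits.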

[2] = test system: MS2 coat protein; assay: apparent KD of MS2 coat protein, switch OFF state (with FMN for OFF switches, without FMN for ON switches); designed switch direction (-1 OFF switch, 1 ON switch): 1; higher = weaker reporter binding; details: FMN input: 0 or 200 uM; Eterna round: R93 (includes R88 designs)
How it was run: as §1

Sequence | apparent KD of MS2 coat protein [1] | apparent KD of MS2 coat protein [2]
AAUAUAUUAUCUGAGGAUAUCAUAGGAAAAACAUGAGGAUCACCCAUGUGGGAAACCUGGUCGGGUGAGAAGGUGGAUAAUAUAU [Samwise Clockwise 33 - Jieux - Same State 2] | 58.7 nM | 341 nM
AUAGACAUAGUUCAGGAUAUGGUAAUAGUCACAUGAGGAUCACCCAUGUGCAUUUAUAUGCGCGAUCAGAAGGGAGGUAGAUAUA [Mat - Same state - Malcolm Mod - D117] | 17.7 nM | 16.3 nM
AAAAAACAUGAGGAUCACCCAUGUGAGAACAAGGGAGGAUAUACGAAGACGAAAGUCGAAGUAGAAGGCCUAAAAA [Garnet 81] | 23.3 nM | 46.6 nM
AACUAACAUGAGGAUCACCCAUGUUGCAGCGGUUGAGGAUAUGUGGGUGAAAAUAGCAUGGCAGAAGGCGAGUGUA [SameState1 Malc#25] | 68.8 nM | 52.2 nM
GGAGCCGGUACUGAGGAUAUUCAUAUUAAAACAUGAGGAUCACCCAUGUAGGCCAGAAGGCCUUGGGAGAAGGCAGACCAGCUCG [Atgexeedri] | 19.1 nM | 273 nM
AUAAAACAUGAGGAUCACCCAUGUAGACAUAUGGGAGGAUAUACUAGAUCGAAAGAUCUAGUAGAAGGUCUUUAAA [JL Mod of Eli 9] | 297 nM | 257 nM
GAAAUAAAAACACAGGAUAUCCAAAAGAAAACAUGAGGAUCACCCAUGUAAAGAAAAUAAAAAUGGGAGAAGGGUGAAAAUAAAA [Mat - Same State 2 - JL mod - D26] | 15.8 nM | 41.3 nM
AAAAAAAAAGUAGAGGAUAUCCGAGUGGUAACAUGAGGAUCACCCAUGUGAAGAAAGGAACAUGAGGAGAAGGCUACAAAAAAAAA [Normal (18/17)] | 11.9 nM | 30.4 nM
AAAAAACAUGAGGAUCACCCAUGUAAAAAAAACACAGGAUAUCCCUAAAAAAAAAAAAAAGGAGAAGGGUGAAAAA [Nob's Hobby 2 - Jieux - Same State 1] | 21.3 nM | 29.8 nM
AAGAAACAUGAGGAUCACCCAUGUGAUAAUAUGGGAGGAUAUACGAAGACGAAAGACGAAGUAGAAGGCCUAAGAA [Garnet 46] | 45.3 nM | 138 nM
AAAGACACGGUGCAGGAUAUAGUAAUAGUCACAUGAGGAUCACCCAUGUUCUUUUAUAAGAACGAUUAGAAGGGCGGUGAAAAAA [SameState2 Malc#10] | 182 nM | 92.6 nM
GCCUAACAUGAGGAUCACCCAUGUAGUGGGUUGUUAGGAUAUGGGCCGUGUAACACUGCACCAGAAGGAAUAGAAG [Atinanqu] | 382 nM | 532 nM
AUAAAAGAAGCGAAGGAUAUCCAACUCAAAACAUGAGGAUCACCCAUGUAAAGAAAUAAAAAAUGGGAGAAGGUCGCAAAGAAUA [73%, More Fisker Same State 2, D3, 14] | 582 nM | 40.1 nM
GAAAAACAUGAGGAUCACCCAUGUAGAAAUAUGGGAGGAUAUACAAAGACGAAAGUCAAAGUAGAAGGCCUAAAAG [Mat - Same State 1 - Rerun of Eli mod - D1] | 23.9 nM | 69.3 nM
AAAAAACAUGAGGAUCACCCAUGUCUUCGGACGUGAGGAUAUGUACAGACUUCGGUCUGUACAGAAGGCAUGAAAA [SS1 - 1058] | 176 nM | 381 nM
AAAAAACAUGAGGAUCACCCAUGUAUAAAAUGGGAAGGAUAUACUAAGACGAAAGUCAUAGUAGAAGGUCCAAAAA [76%, Meechl, 12] | 44.5 nM | 193 nM
AAGAUACAUGAGGAUCACCCAUGUCGAGAGAGACGAGGAUAUCUGAAUCGAUUAGAUUACGGAGAAGGCGUGAAAA [LROPPY Same State 1 - v07_deltaG=1.9] | 19.4 nM | 34.3 nM

Reference: the supplement of paper PMC9170038
